Data taken from US20120231024A1 (UNIVERSIT TSKLINIKUM FREIBURG, published 2012).

Biological target: T1, prostate specific membrane antigen (PSMA), native, on the cell surface (human, UniProt Q04609 1-750)
T1 construct: whole, on cells; also called cell-surface PSMA; native PSMA
Experiment: flow cytometry saturation curve on LNCaP cells; concentration at 50% saturation of PSMA sites
Procedure: The binding properties of the isolated monoclonal antibodies or an antigen binding portion thereof to the native PSMA were compared by treating LNCAP cells with increasing concentrations of the first step anti-PSMA Ab followed by incubation with the second step PE-labeled antibody. From the resulting saturation curves the antibody concentration reaching 50% saturation of PSMA sites can be read.

T1 sequence (Q04609 whole entry): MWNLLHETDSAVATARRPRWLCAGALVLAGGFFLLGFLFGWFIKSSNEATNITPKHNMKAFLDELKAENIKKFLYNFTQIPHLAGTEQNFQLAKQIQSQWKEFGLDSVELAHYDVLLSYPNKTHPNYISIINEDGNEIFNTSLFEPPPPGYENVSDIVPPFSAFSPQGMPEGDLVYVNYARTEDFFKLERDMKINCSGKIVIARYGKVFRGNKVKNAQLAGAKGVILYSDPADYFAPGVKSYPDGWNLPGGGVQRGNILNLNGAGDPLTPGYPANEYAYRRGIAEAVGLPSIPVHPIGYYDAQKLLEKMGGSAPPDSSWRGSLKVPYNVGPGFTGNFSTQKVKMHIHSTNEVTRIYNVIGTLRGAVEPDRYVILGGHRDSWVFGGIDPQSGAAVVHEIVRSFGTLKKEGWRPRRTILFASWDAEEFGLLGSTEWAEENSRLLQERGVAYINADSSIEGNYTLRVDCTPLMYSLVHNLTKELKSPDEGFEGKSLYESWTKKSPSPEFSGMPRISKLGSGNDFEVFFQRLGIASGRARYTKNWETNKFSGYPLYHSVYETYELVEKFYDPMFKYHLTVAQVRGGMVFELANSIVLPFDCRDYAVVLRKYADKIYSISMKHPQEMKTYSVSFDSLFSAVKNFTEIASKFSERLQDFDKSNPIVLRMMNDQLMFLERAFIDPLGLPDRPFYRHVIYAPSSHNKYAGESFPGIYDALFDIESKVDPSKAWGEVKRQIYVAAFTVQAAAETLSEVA

B1: scFv A5 (scFv)
scFv: MADVKLVESGGGLVKPGESLKLSCIASGFTFSDYYMYWVRQTPEKRLEWVAIISDGGYYTYYSDIIKGRFTISRDNAKNNLYLQMSSLKSEDTAMYYCTRGFPLLRHGAMDYWGLGTSVTVSSTKTTPKLEEGEFSEARVDIQMTQSPKFMSTSVGDRVSVTCKASQNVDTNVAWYQQKPGQSPKALIYSASYRYSDVPDRFTGSESGTDFTLTISNVQSEDLAEYFCQQYDSYPYTFGGGTKLEIKRADAAA
notes: also called scFv AS [sic]
EC50: 60 nM
